Test results taken from patent publication US20240042051A1, “MCL-1 INHIBITOR ANTIBODY-DRUG CONJUGATES AND METHODS OF USE” (Novartis AG, priority 2020, published 2024).

Tests used:
[1] = target: Cynomolgus Monkey CD48 (recombinant, CynoCD48 aa29-217) (cynomolgus monkey (Macaca fascicularis)); assay: SPR Biacore T200, antibody captured on protein A chip, CD48 as analyte, 25 °C, 1:1 model
2249 (Homo sapiens) = 2249 (Homo sapiens) (UniProt P09326); assay: ELISA, HEK293T culture supernatant (1:10) with the CD48-mouse Ig construct, antibody at 25, 250 and 500 ng/mL, detection goat anti-mouse IgG (H+L) HRP, Mean OD450-570
2249 (Homo sapiens), sequence (P09326 27-220): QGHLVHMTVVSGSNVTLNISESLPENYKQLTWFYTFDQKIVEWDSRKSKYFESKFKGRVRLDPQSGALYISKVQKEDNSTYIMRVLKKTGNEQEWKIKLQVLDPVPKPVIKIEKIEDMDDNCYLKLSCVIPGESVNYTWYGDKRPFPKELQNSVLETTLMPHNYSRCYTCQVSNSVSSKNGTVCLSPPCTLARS

[2] = target: hCD48EC:mouse-Ig (non-mutated human CD48-mouse IgG1 fusion protein) (human) (UniProt P09326); assay: as above
hCD48EC:mouse-Ig (non-mutated human CD48-mouse IgG1 fusion protein) (human), sequence (P09326 27-220, change not shown): as the sequence (P09326 27-220) above

B1: NY938 (antibody, human IgG1, kappa, V domains shown)
VH: QVQLVQSGAEVKKPGASVKVSCKASGYTFTEYTMHWVRQAPGQGLEWMGGINPDTGDTSYNQKFTGRATLTVDKSTSTAYMELSSLRSEDTAVYYCARAQFWTTPRFAYWGQGTLVTVSS
VL: DIQMTQSPSSLSASVGDRVTITCKASQDVGTAVAWYQQKPGKVPKLLIYWASTRHTGVPSRFSGSGSGTDFTLTISSLQPEDVATYYCQQYSTYPITFGQGTKLEIKR
In the case of B1, the Kd [1] is reported as 1.5 nM, the koff [1] is reported as 0.00037 s⁻¹ and the kon [1] is reported as 250000 M⁻¹ s⁻¹.

B2: humanized CD48A (antibody, V domains shown)
VH: QVQLVQSGSELKKPGASVKVSCKASGYTFTDFGMNWVRQAPGQGLEWMGWINTFTGEPSYGNVFKGRFVFSLDTSVSTAYLQISSLKAEDTAVYYCARRHGNGNVFDSWGQGTLVTVSS
VL: EIVLTQSPDFQSVTPKEKVTITCRASQSIGSNIHWYQQKPDQSPKLLIKYTSESISGVPSRFSGSGSGTDFTLTINSLEAEDAATYYCQQSNSWPLTFGGGTKVEIKR
In the case of B2, the EC50 (read off the curve) (2249 (Homo sapiens)) is reported as 0.03 µg/mL and the EC50 (read off the curve) [2] is reported as 0.02 µg/mL.
